# According to the RNAGym collection of RNA variant scans (doi:10.1073/pnas.2313332121):
# Variants at the floor of the assay were thinned out.
# B1: TPR 5TU (parent)
# chain: GGAUCUUCUCGAUCUAACAAAAAAGACAAAUCUGCCACAAAGCUUGAGAGCAUCUUCGGAUGCAGAGGCGGCAGCCUUCGGUGGCGCGAUAGCGCCAACGUUCUCAACUAUGACACGCAAAACGCGUGCUCCGUUGAAUGGAGUUUAUCAUG
# Variants of: B1
# Assay: polymerase ribozyme fitness, log enrichment relative to wild type (log ratio); higher = more active; in vitro selection for triplet polymerase activity
# Method in brief: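 To select mutant libraries of each subunit of a heterodimeric triplet polymerase ribozyme, built by PCR and transcribed, each was annealed with a biotinylated primer, partner subunit and triplets, then incubated frozen at −7 °C. Extended constructs were gel-excised, captured on streptavidin beads and amplified by RT-PCR, in one round carried out in triplicate. Illumina sequencing of input and output libraries kept genotypes with ≥10 input reads and ≥1 read per output. Fitness is the base-2 logarithm of genotype enrichment relative to wild-type enrichment, from inverse-variance-weighted replicate averages.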
row,Variant,polymerase ribozyme fitness (log ratio)
1,A12C C14U U55A A98G C103G G133A,≤ -4.2
2,A12C U15C A40U C99G,-0.411
3,A12C G50C G65A C76G G83U,≤ -4.2
4,A12C A16U U61A C125A,-3.45
5,A12C A20G G25A A30G U44A A89G U145G,≤ -4.2
6,A12C A40G A41U A52C C54U A66G C95U,≤ -4.2
7,A12G A24U U53A U82G G84A A89U,-3.13
8,A12C C38G C85A C116A A120G,-1.83
9,A12G A41C A47C C72A C85U G133A A150U,≤ -4.2
10,A12C A21U U53A G59C A60G G84A,-0.862
11,A12C C38A C93U,-1.62
12,A12G A22G A39U A47U G92U A97G U101G,≤ -4.2
13,A12G A24U G34A G92U G126C,-1.83
14,A12C A47U U55A,-1.41
15,A12C A41C C54U G94U A121G G140C,≤ -4.2
16,A12C A19C A122G U146C,-1.62
17,A12C A16G U55A,-2.45
18,A12G C54A G86C C87U G126A,≤ -4.2
19,A12G A41G C85G A106G,-1.5
20,A12G C14G A52C G67A G124A A137C,≤ -4.2
21,A12G A24G C35A U44G G50C G71C G124A,≤ -4.2

row,Variant,polymerase ribozyme fitness (log ratio)
1,A12C A17G U31G U44A C93U C99U A122C U134A A142G,≤ -4.2
2,A12G A30G,-2.97
3,A12C U44A U56G G83U A89U C95A A98C C103G A107G,≤ -4.2
4,A12G C14G A22C A37C G88C G143C,≤ -4.2
5,A12C U15G U56A C75U G86U C129A G133U,≤ -4.2
6,A12G C51U,0.193
7,A12G A40C A41G U56A U82G C99A A113C C125U,≤ -4.2
8,A12C A66G A91U,≤ -4.2
9,A12C A29U A66G U101G C131G,≤ -4.2
10,A12C C27A C36U C72G C118A,≤ -4.2
11,A12C A20C U53A C76A U151G,≤ -4.2
12,A12G C57U U61A G68A G70C C87U C96A G133A U148A,≤ -4.2
13,A12C A20U U53C A89G,-3.96
14,A12C A19C U45G G84U A142C,≤ -4.2
15,A12C G81A G92C C99U G124C G133U,≤ -4.2
16,A12C U33A G48C U127G G140C,≤ -4.2
17,A12G C38U C99U,-0.24
18,A12C C27U G34U C63U C93A,-4.1
19,A12C C125U,-0.492
20,A12C A21U A64C G84U U127C A138U,≤ -4.2
21,A12C U13G C18G A21G U101A A110U A120U G136C G140U G152U,≤ -4.2

row,Variant,polymerase ribozyme fitness (log ratio)
1,A12G A19U A41U G50C C85U G133A U148C,≤ -4.2
2,A12G C35A C95U A106U,≤ -4.2
3,A12C C85U A142U,-1.48
4,A12C A30U A37U A49U C57U U90G A91U A107U,≤ -4.2
5,G11U U90A A119U G133C,≤ -4.2
6,A12G C38A C96G,-0.0836
7,A12G A16G U44G G81C G84A C95U U144A U146C,≤ -4.2
8,A12G A40U A60C G88U G117C,≤ -4.2
9,A12C U55G A97G C105U,-3.12
10,A12C C38U C54U C76U U77G G84A U127A A138U,≤ -4.2
11,A12G C51G A52C C63G,≤ -4.2
12,A12C C32G G84U,≤ -4.2
13,A12G A41U C85U U101G C105A G140U G152U,-4.09
14,A12C A142C,-1.32
15,A12C C96U,-0.42
16,A12C U53A G58U C99G U151C,≤ -4.2
17,A12G A23U C35U C76A C93U A97U C116A,-3.12
18,A12G C14G A17G C75U A91G C105U A106G A121U A137U,≤ -4.2
19,A12C A29U G68C A73C G80U G84C,≤ -4.2
20,A12C C87U C114U U139G,-3.08
21,A12G A24U C87U,0.648

row,Variant,polymerase ribozyme fitness (log ratio)
1,A12C A52C C54U U145A,-3.53
2,A12G A22C A66U C69U G92A,≤ -4.2
3,A12G,0.116
4,A12C,0.0783
5,A12C G34U G50U G88C A98U C125A,-4.18
6,A12G A19C A20G A22C A28G A30G C57A G59A G84A U101G A115U G136U,≤ -4.2
7,A12G C54U C69G U145G,-4.06
8,A12G C36A U55G G94A G141C U148G,≤ -4.2
9,A12G C14G A97U,-2.49
10,A12G A17G A19G U53A U55A G81U G84U G117U,-4.04
11,A12G A39U G42C C57A G59C C79A U134A,≤ -4.2
12,A12C G59A G84A C118U A121G A122C G126U,-3.86
13,A12C A22G C32G C51G A60U U77A G81C G128A U148C,≤ -4.2
14,A12C G94U A150G,-2.61
15,A12C C93G A98U,-3.05
16,A12C U101G A137G,-0.888
17,A12G C79U G86C A120G C125U,≤ -4.2
18,A12G A20U A29U U53G A66C,-4.16
19,A12C G86C A106U A115U U144A,≤ -4.2
20,A12C A60U C75G G88C A91G U109G,≤ -4.2
